This passage reports stoichiometry N results from paper PMC5408392.

What all share (assay): SEC-MALS; SEC followed by multiangle light scattering of the SEC-purified Δ123 species
(In general: Size exclusion chromatography separates by hydrodynamic size, large species first.)

In experiment [1] the target is Δ123 E2 dimer (G1a strain H77c) (hepatitis C virus genotype 1a, strain H77c) (UniProt P27958).
Experiment [2] addresses Δ123 E2 high-molecular-weight form 1 (HMW1, G1a strain H77c) (hepatitis C virus genotype 1a, strain H77c) (UniProt P27958).
The target of experiment [3] is Δ123 E2 high-molecular-weight form 2 (HMW2, G1a strain H77c) (hepatitis C virus genotype 1a, strain H77c) (UniProt P27958).

What is called stoichiometry N is the number of molecules, sites or subunits per partner or assembly. “Δ123 E2 dimer (G1a strain H77c) (from UniProt P27958 384-661) (domain or fragment)” had a stoichiometry N in experiment [1] of 2.1.
As for “Δ123 E2 high-molecular-weight form 1 (HMW1, G1a strain H77c) (from UniProt P27958 384-661) (domain or fragment)”, the stoichiometry N in experiment [2] came out at 51.6.
In turn, “Δ123 E2 high-molecular-weight form 2 (HMW2, G1a strain H77c) (from UniProt P27958 384-661) (domain or fragment)” registered a stoichiometry N in experiment [3] of 5.1.
